These results are taken from US20100093608A1 (Eli Lilly, published 2010).

Assay [1] has as its target T1, erythropoietin receptor on TF-1 cells (UniProt P19235 25-508, limits assumed).
T1 sequence (looked up): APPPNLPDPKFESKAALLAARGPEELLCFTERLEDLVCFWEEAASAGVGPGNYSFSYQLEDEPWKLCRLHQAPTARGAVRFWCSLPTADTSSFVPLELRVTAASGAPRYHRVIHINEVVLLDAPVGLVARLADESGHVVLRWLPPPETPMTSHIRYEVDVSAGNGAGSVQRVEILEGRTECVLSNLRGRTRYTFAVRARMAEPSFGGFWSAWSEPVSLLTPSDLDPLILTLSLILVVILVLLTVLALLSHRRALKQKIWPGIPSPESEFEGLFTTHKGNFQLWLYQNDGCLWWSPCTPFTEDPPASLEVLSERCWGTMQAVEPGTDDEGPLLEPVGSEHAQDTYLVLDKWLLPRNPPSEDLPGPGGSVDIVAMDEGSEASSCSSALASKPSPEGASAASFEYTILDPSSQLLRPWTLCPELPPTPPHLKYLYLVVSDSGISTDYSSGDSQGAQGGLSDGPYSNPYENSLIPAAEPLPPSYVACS

Assay [2] addresses T1, erythropoietin receptor on TF-1 cells. The source holds these as a separate data set.
Assay [3] shares this target. The source holds these as a separate data set.
Assay [4] has the same target. The experiment in a line: cell-based or functional assay.
Assay [5] shares this target. Briefly: cell-based or functional assay. This is another data set of the same source.
The target is the same in assay [6]. The experiment in a line: cell-based or functional assay. This is another data set of the same source.
The target is the same in assay [7]. The experiment in a line: cell-based or functional assay. The source holds these as a separate data set.

Read-outs that look alike come from different tables or passages of the source.

On to A128 (ligand), for which, in assay [1], the fold more active than WT (TF-1 proliferation, EC 50 ng/ml) was 1.4 x. This molecule also displayed a Relative activity compared to wt fEPO (TF-1 proliferation) in assay [2] of 1.4 X.
D55 (ligand): in assay [2], the Relative activity compared to wt fEPO (TF-1 proliferation) was found to be 1.4 X.
Molecule E21 (ligand) displayed a Relative activity compared to wt fEPO (TF-1 proliferation) in assay [2] of 3.1 X.
Same read-out and setting: with E31 (ligand) the figure was 1.4 X.
In general, EC50 (read off the curve) refers to the concentration needed to bring the measured effect to its halfway point. With E37 (ligand), in assay [2], the EC50 (read off the curve) was 3 ng/mL and the Relative activity compared to wt fEPO (TF-1 proliferation) amounted to 1.2 X.
Turning to E72 (ligand), in assay [3], the EC50 (TF-1 proliferation, 450nm; stored 5 weeks at +4 degrees C) was 2.1 ng/mL and the EC50 (TF-1 proliferation, 450nm; stored 5 weeks at -80 degrees C) was 2.1 ng/mL. The molecule also displayed a Relative activity compared to wt fEPO (TF-1 proliferation) in assay [2] of 1.2 X.
In assay [2], F133 (ligand) had a Relative activity compared to wt fEPO (TF-1 proliferation) of 2.2 X.
As to K116 (ligand), the Relative activity compared to wt fEPO (TF-1 proliferation) in assay [2] is 0.7 X.
Consider L130 (ligand), for which the Relative activity compared to wt fEPO (TF-1 proliferation) in assay [2] is 2.6 X.
On the same count and under the same terms, the value for P129 (ligand) was 0.9 X; that for R53 (ligand) was 1.6 X.
Regarding R76 (ligand), the fold less active than WT (TF-1 proliferation, EC 50 ng/ml) in assay [1] amounted to 1.6 x. The Relative activity compared to wt fEPO (TF-1 proliferation) in assay [2] came out at 0.6 X.
As to R131 (ligand), in assay [2], the Relative activity compared to wt fEPO (TF-1 proliferation) was found to be 0.8 X.
For R163 (ligand), the Relative activity compared to wt fEPO (TF-1 proliferation) in assay [2] is 1.1 X.
Regarding S36 (ligand), in assay [2], the Relative activity compared to wt fEPO (TF-1 proliferation) came to 0.9 X.
On the same count and under the same terms, the value for S120 (ligand) was 1.6 X; that for T132 (ligand) was 3.2 X.
Turning to Y49 (ligand), the Relative activity compared to wt fEPO (TF-1 proliferation) in assay [2] stood at 2.6 X.

B1: wild type feline erythropoietin (fEPO) (ligand)
chain: APPRLICDSRVLERYILEAREAENVTMGCAEGCSFSENITVPDTKVNFYTWKRMDVGQQAVEVWQGLALLSEAILRGQALLANSSQPSETLQLHVDKAVSSLRSLTSLLRALGAQKEATSLPEATSAAPLRTFTVDTLCKLFRIYSNFLRGKLTLYTGEACRRGDR
For the molecule B1, the “EC50 (read off the curve)” value in assay [4] was around 2 ng/mL. In assay [5], the “EC50 (read off the curve)” value was around 3 ng/mL. Moreover, in assay [6], the “EC50 (TF-1 proliferation, 450nM)” value was found to be 3.2 ng/mL. Also, in assay [7], the “EC50 (TF-1 proliferation; Starting [fEPO] 250ng/ml; Theoretical Activity 0.5x, Actual Activity 0.6x)” value is 4.7 ng/mL; the “EC50 (TF-1 proliferation; Starting [fEPO] 500ng/ml; Theoretical Activity 1x, Actual Activity 1x)” value was 2.8 ng/mL; the “EC50 (TF-1 proliferation; Starting [fEPO] 1000ng/ml; Theoretical Activity 2x, Actual Activity 2x)” value was determined as 1.4 ng/mL.
